Reference: the supplement of paper PMC9732359
± gives the uncertainty stated by the source.

Assay: protein stability index of a GFP-peptide fusion (yeast GPS) (PSI 1-4); higher = more stable; sorted into four equal gates, so the index is relative within each strain
Procedure, shortened: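 Plasmids in a pooled yeast library fused tiled 17-residue yeast protein peptides downstream of GFP and also expressed Cherry. Mid-log cultures grown without leucine were sorted into four equal gates by GFP/Cherry fluorescence ratio. Each gate's plasmids were PCR-amplified and Illumina-sequenced, and reads were matched to strains by barcodes. The protein stability index is derived by multiplying each gate's read frequency by its gate number and summing the results.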

Sequence	protein stability index (doa10∆)	protein stability index (pdr5∆)	protein stability index (san1∆)	protein stability index (ubr1∆)
IGHLITKEEIMHGLQAK [RPN5]	2.91 ± 0.087	2.96 ± 0.091	2.94 ± 0.065	3.01 ± 0.067
MNECIADQDMEDEDMVD [ESC2]	3.18 ± 0.072	3.35 ± 0.11	3.3 ± 0.048	3.08 ± 0.058
NSTHLLPLQPIEIDYTV [SNF12]	2.34 ± 0.044	2.27 ± 0.044	2.27 ± 0.051	2.21 ± 0.036
AELLNEWHSSLTLKEAE [PUP2]		2.93 ± 0.14		3.02 ± 0.17
GSLARAGKVKSQTPKVE [RPS30A]	2.71 ± 0.06	2.7 ± 0.069	2.69 ± 0.058	2.57 ± 0.05
ISMLVTQLQRGGTSDMN [CSI1]	3.19 ± 0.1	2.53 ± 0.12	2.5 ± 0.11	2.53 ± 0.067
KEHAPYTDELEEDVYLD [FAS2]		3.48 ± 0.27		3.04 ± 0.26
VRYEEKRELKQLLEKAP [BRR2]	1.86 ± 0.093	2.35 ± 0.084	1.89 ± 0.18	2.4 ± 0.12
DCMIAHGAASFLKERLM [RPB2]	3.03 ± 0.088	2.54 ± 0.068	2.13 ± 0.1	2.09 ± 0.066
TPAEMSRPATTTRNGFM [FAS2]	2.35 ± 0.038	2.57 ± 0.041	2.52 ± 0.05	2.52 ± 0.042
IRALQPKLKEGALHFVQ [YIL149C/MLP2]	2.77 ± 0.074	2.06 ± 0.077	2.17 ± 0.068	2.69 ± 0.071
QILPESQWNDSSIDKIE [SIR3]		3.42 ± 0.18		2.81 ± 0.12
VFLSNLVETCLNDLVES [BRR2]	1.41 ± 0.05	1.98 ± 0.04	1.57 ± 0.11	1.89 ± 0.039
SVVKKEDNKYAIAGNST [RGR1]	3.1 ± 0.084	2.63 ± 0.072	3.02 ± 0.054	2.92 ± 0.054
NGVIIAADNLGSYGSLL [PRE4]	3.05 ± 0.13	3.15 ± 0.13	2.92 ± 0.21	3.12 ± 0.2
TFTIKEFVSYYYAHSIP [SNU114]	1.88 ± 0.039	1.77 ± 0.045	2.25 ± 0.055	1.88 ± 0.052
ISDVKIQVAAFIYGMSA [PRP8]		2.17 ± 0.17	1.84 ± 0.12	1.94 ± 0.14
SRTFDKYSKLVDNVTLE [SRP72]	3.37 ± 0.12	3.36 ± 0.1	3.44 ± 0.094	3.3 ± 0.1
GKVRLWKATYSNEFKCM [YGL100W/SEH1]	2 ± 0.041	1.84 ± 0.053	1.78 ± 0.048	2.22 ± 0.03
VQGKNLLTNFHGMDFTT [RPS1A]	3.42 ± 0.078	3.42 ± 0.055	3.22 ± 0.045	3.23 ± 0.052
EKKQKTESQDVETRVQN [DPB4]	3.52 ± 0.11	3.38 ± 0.072	3.35 ± 0.048	3.3 ± 0.056
SASDALKGRVVEVCLAD [RPS1A]	2.46 ± 0.06	2.82 ± 0.093	2.35 ± 0.081	2.43 ± 0.055
DSYGQGSMTKTWYVGNS [SSN2]	2.94 ± 0.13	3.09 ± 0.16	3.34 ± 0.16	3.05 ± 0.088
EYGKHDFKNEESLSEEH [MED8]	3.3 ± 0.1	3 ± 0.081	3.1 ± 0.053	3.34 ± 0.054
MNAGGLFGAKPQNTTAT [YGR119C/NUP57]	2.43 ± 0.049	3.29 ± 0.059	3.35 ± 0.058	2.72 ± 0.059
GIIITDQSNVQYYLSVL [BRR2]	3.32 ± 0.2	3.44 ± 0.19	3.07 ± 0.11	3.01 ± 0.13
TLSTHSTTTSVNGSTTA [SIN4]	2.79 ± 0.043	3.04 ± 0.038	3.114 ± 0.03	2.93 ± 0.031

Sequence	protein stability index (doa10∆)	protein stability index (pdr5∆)	protein stability index (san1∆)	protein stability index (ubr1∆)
ALNNAIPGGPKFEPLYP [PRP8]	3.1 ± 0.069	2.96 ± 0.086	2.95 ± 0.09	3.06 ± 0.046
ALYVLRERIRKGLQIYQ [PRP8]	2.54 ± 0.24	2.85 ± 0.11	2.26 ± 0.13	2.41 ± 0.29
EKPLILADYIVEVLLVN [NUT1]	1.91 ± 0.047	1.49 ± 0.039	1.65 ± 0.17	1.32 ± 0.039
CNALIHIKFSAGTEANA [SRB4]	1.96 ± 0.05	2.31 ± 0.039	2.19 ± 0.054	2.33 ± 0.034
ALERNWPIVNSKVYFNN [RPN12]	1.93 ± 0.08	1.7 ± 0.072	1.38 ± 0.12	1.9 ± 0.087
SEIARTYLLKNDLVKAR [RPN9]	3.29 ± 0.2		3.09 ± 0.12	
SIAAERYDYSDEVGRRS [YCG1]	3 ± 0.075	2.99 ± 0.11	2.65 ± 0.14	3.04 ± 0.063
NKNLPFVWLSSEENIGS [SWI1]	2.9 ± 0.067	1.84 ± 0.072	1.59 ± 0.063	1.74 ± 0.053
NELQEERLKVPILVTLV [POP6]	1.67 ± 0.034	1.99 ± 0.036	1.84 ± 0.053	1.7 ± 0.023
YPDLKAFHNNLKFLYLL [MED1]	2.06 ± 0.059	2.04 ± 0.05	1.83 ± 0.074	1.93 ± 0.037
LDDLVVLKKKNIQKKQP [RRP6]	1.44 ± 0.079	1.38 ± 0.061	2.08 ± 0.12	2.34 ± 0.14
NEAGRKLSDIFLSKPSK [SNF2]	2.94 ± 0.08	3.27 ± 0.087	3.21 ± 0.081	3.04 ± 0.093
KRLNGKRKYLDIPIDEM [SSN2]	3.19 ± 0.13	2.97 ± 0.14	3.23 ± 0.078	3.14 ± 0.17
KETVEIGIVDYEAGASH [FAS1]		2.92 ± 0.19		3.06 ± 0.14
RVSHSDTNSSKPKNTKE [SIR4]		3.08 ± 0.26		
AAQIFGSYNAFEPASRL [COR1]	2.33 ± 0.07	1.55 ± 0.064	1.41 ± 0.16	1.51 ± 0.082
SIISSKTSCVVEKRIGK [RGR1]	2.46 ± 0.089	2.62 ± 0.084	2.59 ± 0.093	2.69 ± 0.05
DKSTTQLRKEIQLLDEN [MED11]	1.56 ± 0.093	1.54 ± 0.086	1.71 ± 0.17	1.55 ± 0.068
NDIKLFVDDTNVYRVTV [PRP8]	2.58 ± 0.084	2.63 ± 0.091	2.43 ± 0.072	2.57 ± 0.053
IQKGKFTLLDFKKQMQT [SRP54]	1.27 ± 0.13	1.85 ± 0.22	1.07 ± 0.21	1.7 ± 0.29
DDETPSCEVEEIGLLGG [SNU114]	3.13 ± 0.11	3.35 ± 0.084	3.26 ± 0.07	3.14 ± 0.065
RHFWGLRVRGQHTKTTG [RPS18A]	1.81 ± 0.062	1.99 ± 0.087	1.77 ± 0.12	2.16 ± 0.056
ESVPIYSIDEFFLQRKL [BRR2]	3.44 ± 0.13	3.21 ± 0.062	2.96 ± 0.12	3.33 ± 0.057
NCEYEDPPNEGDPFDYK [RPB3]	3.16 ± 0.13	3.4 ± 0.12	3.36 ± 0.11	3.14 ± 0.06
HPFGHALVAGIERYPLK [RPL27A]	2.53 ± 0.082	2.3 ± 0.098	2.49 ± 0.082	2.49 ± 0.062
IDPSVTMMTVEEKPDVT [RPT1]	2.62 ± 0.097	2.58 ± 0.059	1.93 ± 0.13	2.38 ± 0.05
EIEQLDQYIQKQVQISH [YGL172W/NUP49]	2.91 ± 0.056	3.11 ± 0.05	2.75 ± 0.073	2.87 ± 0.059
